In patent publication US20090088376A1, “DENDRIMER BASED COMPOSITIONS AND METHODS OF USING THE SAME” (priority 2007, published 2009):

System: A431 cells
Experiment: Binding of dendrimer-EGF conjugate by flow cytometry
Format: cell-based
Description: Cell culture and treatment. The cell lines were cultured in Dulbecco's Modified Eagle Medium (DMEM) supplemented with 10% fetal calf serum (FCS), 100 units/ml penicillin, and 100 μg/ml streptomycin. Cells were allowed to grow in a monolayer in tissue culture flasks incubated at 37° C. in a humidified atmosphere containing 5% CO2 and 95% air. Cells plated in 24-well plates (for flow cytometry), 35 mm dishes with glass cover slips in the bottom (for confocal microscopy) and 96 well plates (for ‘FACE’ and ‘XTT’ assays) were treated with the conjugate under the specified incubation conditions. Excess free EGF was added 30 min prior to the conjugates for blocking the binding of the latter. Competition assay with free EGF was conducted at 4° C. by simultaneously exposing the conjugate and free EGF.
Flow Cytometry and Confocal Microscopy. The FITC fluorescence was quantified on a f a BECKMAN-COULTER EPICS-XL MCL flow cytometer, and the data were analyzed using EXPO32 software (BECKMAN-COULTER, Miami, Fla.). The viable cells were gated, and the mean FL1-fluorescence of 10,000 cells was quantified. […] Cells were incubated with the conjugate in serum-free medium under the specified conditions and analyzed using an OLYMPUS FLUOVIEW 500 laser scanning confocal microscope. FITC fluorescence was excited with a 488 nm blue argon laser and emission was measured through a 505-525 nm barrier filter. […]

B1: EGF-FI (conjugate, UniProt P01133 23-1207, looked up)
Pro-epidermal growth factor: PQHWSCPEGTLAGNGNSTCVGPAPFLIFSHGNSIFRIDTEGTNYEQLVVDAGVSVIMDFHYNEKRIYWVDLERQLLQRVFLNGSRQERVCNIEKNVSGMAINWINEEVIWSNQQEGIITVTDMKGNNSHILLSALKYPANVAVDPVERFIFWSSEVAGSLYRADLDGVGVKALLETSEKITAVSLDVLDKRLFWIQYNREGSNSLICSCDYDGGSVHISKHPTQHNLFAMSLFGDRIFYSTWKMKTIWIANKHTGKDMVRINLHSSFVPLGELKVVHPLAQPKAEDDTWEPEQKLCKLRKGNCSSTVCGQDLQSHLCMCAEGYALSRDRKYCEDVNECAFWNHGCTLGCKNTPGSYYCTCPVGFVLLPDGKRCHQLVSCPRNVSECSHDCVLTSEGPLCFCPEGSVLERDGKTCSGCSSPDNGGCSQLCVPLSPVSWECDCFPGYDLQLDEKSCAASGPQPFLLFANSQDIRHMHFDGTDYGTLLSQQMGMVYALDHDPVENKIYFAHTALKWIERANMDGSQRERLIEEGVDVPEGLAVDWIGRRFYWTDRGKSLIGRSDLNGKRSKIITKENISQPRGIAVHPMAKRLFWTDTGINPRIESSSLQGLGRLVIASSDLIWPSGITIDFLTDKLYWCDAKQSVIEMANLDGSKRRRLTQNDVGHPFAVAVFEDYVWFSDWAMPSVMRVNKRTGKDRVRLQGSMLKPSSLVVVHPLAKPGADPCLYQNGGCEHICKKRLGTAWCSCREGFMKASDGKTCLALDGHQLLAGGEVDLKNQVTPLDILSKTRVSEDNITESQHMLVAEIMVSDQDDCAPVGCSMYARCISEGEDATCQCLKGFAGDGKLCSDIDECEMGVPVCPPASSKCINTEGGYVCRCSEGYQGDGIHCLDIDECQLGEHSCGENASCTNTEGGYTCMCAGRLSEPGLICPDSTPPPHLREDDHHYSVRNSDSECPLSHDGYCLHDGVCMYIEALDKYACNCVVGYIGERCQYRDLKWWELRHAGHGQQQKVIVVAVCVVVLVMLLLLSLWGAHYYRTQKLLSKNPKNPYEESSRDVRSRRPADTEDGMSSCPQPWFVVIKEHQDLKNGGQPVAGEDGQAADGSMQPTSWRQEPQLCGMGTEQGCWIPVSSDKGSCPQVMERSFHMPSYGTQTLEGGVEKPHSLLSANPLWQQRALDPPHQMELTQ
modifications: Pro-epidermal growth factor fluorescein label
Which IC50 (100 nM conjugate, 1 h at 4° C., value listed under the conjugate displaced, read-out: concentration of free EGF giving 50% inhibition of binding of the labeled conjugate) does the source give for B1 here?
Its IC50 is 60 nM.

And the “apparent KA” value (double reciprocal binding plots of normalized fluorescence)?
The value was 15 nM.
